The text below walks through data of the Immune Epitope Database (IEDB).

Targets include HLA-A*68:01; HLA-A*11:01; HLA-A*33:01; HLA-A*03:01; HLA-A*31:01.
Holding throughout (assay): IEDB peptide-MHC binding, purified MHC/competitive/radioactivity; filed as Kd, often an IC50 or EC50 that approximates it; ≥ and ≤ were set here for values at or beyond the usual limits of such assays
[1] abbreviates: source organism: Vaccinia virus WR.
[2] abbreviates: source organism: Dengue virus 3 Martinique/1243/1999.
The mark [3] stands for this setting: source organism: Dengue virus 2 Peru/IQT2913/1996.
Setting [4] is: source organism: Mammarenavirus guanaritoense.
Where [5] appears, read: source organism: SARS coronavirus Tor2.
The mark [6] stands for this setting: source organism: Dengue virus 4 Philippines/H241/1956.
[7] abbreviates: source organism: Mammarenavirus juninense.
[8] abbreviates: source organism: Dengue virus 2 Jamaica/1409/1983.
Where [9] appears, read: source organism: Dengue virus 1 Brazil/97-11/1997.
Setting [10] is: source organism: Lassa virus Josiah.

Consider FFRKLVLTNK, for which the dissociation constant Kd came out at 3.73 µM with HLA-A*68:01 (setting [1]); 0.39 µM in the test with HLA-A*11:01 (setting [1]); 0.243 µM with HLA-A*33:01 (setting [1]); 1.02 µM with HLA-A*03:01 (setting [1]); 0.2 µM with HLA-A*31:01 (setting [1]).
As to FLALGFFLRK, the Kd with HLA-A*03:01 (setting [2]) stood at 0.0291 µM.
FLDKSIHLTK: the Kd with HLA-A*68:01 (setting [1]) is 0.235 µM; with HLA-A*11:01 (setting [1]) it was 0.177 µM; in the test with HLA-A*33:01 (setting [1]), 0.53 µM; in the test with HLA-A*03:01 (setting [1]), 0.117 µM; with HLA-A*31:01 (setting [1]), 0.104 µM.
As to FLMSGRGIGK, the Kd came out at 0.0752 µM in the test with HLA-A*11:01 (setting [3]) and 0.00497 µM with HLA-A*03:01 (setting [3]).
With FTVKLGGVFH, the Kd amounted to 0.0274 µM with HLA-A*68:01 (setting [4]), 12.5 µM with HLA-A*33:01 (setting [4]), 14.8 µM in the test with HLA-A*03:01 (setting [4]) and 0.695 µM with HLA-A*31:01 (setting [4]).
For GIFKNNDVR, the Kd with HLA-A*68:01 (setting [1]) is 0.132 µM; in the test with HLA-A*11:01 (setting [1]), 1.66 µM; with HLA-A*33:01 (setting [1]), at least 28.4 µM; in the test with HLA-A*03:01 (setting [1]), 2.21 µM; with HLA-A*31:01 (setting [1]), 11.5 µM.
For the sequence GLVASIKNFK, the Kd is 0.507 µM with HLA-A*68:01 (setting [5]); 1.32 µM in the test with HLA-A*11:01 (setting [5]); at least 20.6 µM with HLA-A*33:01 (setting [5]); 0.63 µM in the test with HLA-A*03:01 (setting [5]); 7.56 µM with HLA-A*31:01 (setting [5]).
The like results for GTSTDVVYR were, in that order, 0.0165 µM, 0.0179 µM, 0.481 µM, 0.0792 µM and 0.0303 µM.
Take HAFDAPTLY: the dissociation constant Kd is 0.0303 µM in the test with HLA-A*68:01 (setting [1]); 0.185 µM with HLA-A*11:01 (setting [1]); at least 77.7 µM with HLA-A*33:01 (setting [1]); 0.0339 µM in the test with HLA-A*03:01 (setting [1]); at least 48.4 µM in the test with HLA-A*31:01 (setting [1]).
The like results for HLRVLFSIFY were, in that order, 2.08 µM, 4.97 µM, 1.85 µM, 0.0375 µM and 1.01 µM.
The like results for IAARILSEK were, in that order, 0.0118 µM, 0.0135 µM, 4.87 µM, 0.0149 µM and 4.55 µM.
With IAPGIADIR, the dissociation constant Kd was 0.0294 µM in the test with HLA-A*68:01 (setting [1]); at least 50.1 µM with HLA-A*11:01 (setting [1]); at least 29 µM with HLA-A*33:01 (setting [1]); at least 78 µM with HLA-A*03:01 (setting [1]); at least 23.9 µM with HLA-A*31:01 (setting [1]).
Turning to IAQSKGLYR, the Kd with HLA-A*68:01 (setting [5]) turned out to be 0.105 µM; with HLA-A*11:01 (setting [5]) it was 0.224 µM; with HLA-A*33:01 (setting [5]), 0.152 µM; in the test with HLA-A*03:01 (setting [5]), 3.88 µM; with HLA-A*31:01 (setting [5]) it was 0.098 µM.
Turning to IFPGDKTSY, the Kd is 17.7 µM with HLA-A*68:01 (setting [1]); 11.7 µM with HLA-A*11:01 (setting [1]); at least 77.7 µM with HLA-A*33:01 (setting [1]); 11.6 µM with HLA-A*03:01 (setting [1]); at least 56.7 µM with HLA-A*31:01 (setting [1]).
The like results for IIFLKLFKK were, in that order, 0.0132 µM, 0.00444 µM, 0.00485 µM, 0.00876 µM and 0.00567 µM.
Consider ILIKRRQQK, for which, in the test with HLA-A*03:01 (source organism: Homo sapiens), the Kd was found to be 0.0289 µM.
In the case of ISLGLILLK, the Kd stood at 0.00121 µM with HLA-A*11:01 (setting [6]) and 0.0312 µM with HLA-A*03:01 (setting [6]).
Turning to KIIAVFDSK, the Kd was determined as 0.474 µM in the test with HLA-A*68:01 (setting [1]); 0.00668 µM with HLA-A*11:01 (setting [1]); 7.97 µM in the test with HLA-A*33:01 (setting [1]); 0.00819 µM in the test with HLA-A*03:01 (setting [1]); 0.126 µM with HLA-A*31:01 (setting [1]).
As to KLTYQNKVVK, in the test with HLA-A*03:01 (setting [2]), the Kd came out at 0.0661 µM.
With KMLLNRFTTR, in the test with HLA-A*31:01 (setting [6]), the dissociation constant Kd worked out at 0.00377 µM.
Turning to KSTVKLVQR, the Kd with HLA-A*68:01 (setting [1]) was found to be 1.53 µM; with HLA-A*11:01 (setting [1]), 1.42 µM; with HLA-A*33:01 (setting [1]), 1.48 µM; with HLA-A*03:01 (setting [1]), 16.5 µM; in the test with HLA-A*31:01 (setting [1]), 0.00444 µM.
In the case of KYIHCFRKPH, the Kd was at least 70.1 µM in the test with HLA-A*68:01 (setting [7]); at least 69.7 µM with HLA-A*11:01 (setting [7]); at least 46.1 µM with HLA-A*33:01 (setting [7]); at least 70 µM in the test with HLA-A*03:01 (setting [7]); 0.0127 µM with HLA-A*31:01 (setting [7]).
With LINRFTMKHK, in the test with HLA-A*03:01 (setting [8]), the Kd turned out to be 0.0125 µM.
Turning to RICTREEFTR, the Kd with HLA-A*31:01 (setting [9]) is at least 70 µM.
With RMLNILNRRR, the Kd in the test with HLA-A*31:01 (setting [8]) stood at 0.0016 µM.
For the sequence RTLGRNKKPR, in the test with HLA-A*31:01 (setting [2]), the Kd worked out at 0.00839 µM.
As to RTYSDPLALK, the equilibrium dissociation constant (Kd) with HLA-A*68:01 (setting [2]) is 0.0293 µM; with HLA-A*11:01 (setting [2]) it was 0.0361 µM; in the test with HLA-A*03:01 (setting [2]), 0.00361 µM.
SFNMLKRAR: the Kd was 0.01 µM with HLA-A*33:01 (setting [9]) and at least 34.2 µM with HLA-A*31:01 (setting [9]).
Turning to SIPPTAGILK, the Kd with HLA-A*11:01 (setting [6]) turned out to be 0.0165 µM; with HLA-A*03:01 (setting [6]), 0.216 µM.
On to SSMVNGVVK, for which, in the test with HLA-A*11:01 (source organism: Dengue virus 1 Singapore/S275/1990), the dissociation constant (Kd) is 0.0734 µM.
In the case of TSAYLISIFL, the Kd with HLA-A*33:01 (source organism: Lymphocytic choriomeningitis virus (strain WE)) amounted to 2.17 µM.
For the sequence TSEHGGRAYR, the Kd with HLA-A*31:01 (setting [2]) came to 0.0724 µM.
Turning to TSFYLISIFL, the Kd is at least 31.1 µM with HLA-A*33:01 (setting [10]) and 8.08 µM in the test with HLA-A*03:01 (setting [10]).
With VLKIVRNMEK, the Kd with HLA-A*03:01 (setting [8]) was found to be 0.0828 µM.
With VSFLLLAGR, the Kd with HLA-A*11:01 (source organism: Mammarenavirus choriomeningitidis) is 0.0179 µM.
Turning to VSILASSLLR, the Kd was 0.468 µM with HLA-A*68:01 (setting [2]), 0.514 µM with HLA-A*11:01 (setting [2]), 0.2 µM in the test with HLA-A*33:01 (setting [2]) and 0.872 µM with HLA-A*31:01 (setting [2]).
WQLMYFHRR: the Kd with HLA-A*31:01 (setting [9]) was 4.41 µM.

Broadly, the Kd is the constant that tells how readily two partners part at equilibrium.
